First the molecules themselves.
B1: GS1853: dsRNA trigger SEQ ID NO 204; gene target Uncharacterized WD repeat-containing protein C17D11.16 (nucleic acid)
chain: CGGACTTCTTGGTCAGGCGCAAAAGAAGTTGAAAATACCTTTCCAACTTCCAAATCTCTGGACACTATCATTGAGGGGCCCGATGGCTGAATATTCCACAGTTTTACGAGTTTATCAGAAGACCCTGTGGCCATAAACCCGGGAATGATAGGATTAATATCAAAAGCACAAACTGATTTGTCATGTGCTTGCAATAACCAAACTGGCTTACTAGAACTGGGAGTAGATGGTGCCATTCGTATATCGTGATAATGGACCATACCACCTTCTGTCGTTACGTAAAAGAAATTTGGGTTGTGTGCATCCCATTTGACAGCTTCTACATCACTTTCTACACCCCAAATCGGCACTTTGGATTCTGGTGCTCTCATGTCGGCCGCTACGACACTCCGATCATAACTTCCACTAAGTAAGACAGTGGAGTCAACAGGATGCCATTGTATTGAGCAAACTTTATCTGAATGATTACTATATGATTTAGCACATTTATTAGTATTAAGGTCCCATAGTTTGACAGTCTTGTCGGCGGAAGAAGAGGCAAGTAAATTTTGGTGTT
B2: GS1846: dsRNA trigger SEQ ID NO 135; gene target Calcium-transporting ATPase 2 (nucleic acid)
chain: AGACCTTCGGGTACTGCTACAACAATTACAGTGACTGTCACAATGAAAATTTGCAGAAATTGCTGACCTTTAACGGTTGGTGTAGCATCATTGTTAGGTAGTCTAGCCAGAAACTCAATGAATAAGACTGTAAATAATAATAGACCAGCTCCTCCTCCAAGTTTAGCTATATACTCTGCTAAATTGTTCAATTTTGACTGTAATGGCGTGATTTCCGGATCTTCACGGAGCGACATTAATGTTTTCCCATAACTAGAGTTTACACCAGTTGAAGTAACTAAAAATGTACCCACACCTTCAGTGACAGTAGCCCCAGACAAAATAAATGGATCTAATTTTTCTAGCTTTTCGTGGTTCGAGATAGCAGCATAAACTTGGTCTGCCGGATGCTTGCGAATAATATCGGACTCGCCAGTTATTTGAGACTCATCACATCTAAGATTATGCCCTCCAATAAAAATTCCATCAACAGGAATCATGTCGCCAGGTTCAAGATGTAAAACATCGCCTACAAGAACATCATAGATGGATATTTCCGAAGTTTTCCCGGAACGAGTCACATTTACAT
B3: GS1845: dsRNA trigger SEQ ID NO 191; gene target Singe-stranded TG1-3 DNA-binding protein (nucleic acid)
chain: CAGATACTGCCCAAACTACCTTCATAATTTTCCGAGCTACACACCAGAACCTCGAGTATTGACATTACGGAATCATCTCACCATTTAAAAGTTGCGGTTTAACTTAAGCTGTAGCCGCAACAGTTTCAGCTGTCCCAGCTAGTCCTTCTGATTGAAGTTTATCATTAGTAATCCCTTTAGCGATGGCGCCATTAGTACCTTCGGTTGAGTTGCCAACATTAGATACTTCGCCAGCACCATCAGATACATGTGTAGTTAATTCTTCAGAGGTCTTGTCCGGACTATCTATTGCGATCTTTACTGCAATCTCACGACCTTGAACTTCTTTTCCATTCATTTCGGCAACAGCCCTATTTTGAAGTTCATTAGATGCTAAGTTCACAAAGCCAAACCCACGGCCTTTCCGAGGTTCGTTGCGGGCCTGAAGCTTTTTAACCATGAATTTTGGAATAGGACGCAGAGCAATTTTGGCAGATACTGGTTCGTAATCGGCAAATAGTTCCTTTAACTTTTCCTCGGATAAGTCATAAGGAAGATTGGCAACCATAACTTTTGTCTTAGATGGAAC
B4: GS1848: dsRNA trigger SEQ ID NO 134; gene target ADP-ribosylation factor-like protein 3 (nucleic acid)
chain: CACCGCCCATAGCTCCTTCAAAAACGTGTTTGACAAATCCCTCTTTGATTCGTACCACTTCAACGCAATCTTCACGATCTTGCTTATTTGCTAATATCAACAATGGTACACCGTCAATTTCTCCATTGACCAAGACTTCCTCCAGAGCCAATCGACACTCTTCAAGGCGACCCGACTCATCATGCTCCAAATCTCCATCACCAATCTCAGTGCTATCAATGAGGAAAATAATGGCGTGGCATGATCGATAGTAAGATTTCCATAGTTTGCGAAGAGATTCCTGACCACCTACATCCCAAAGCTTAAGGTACATGTCAGGCAGCGTAATAGTGCTCACATTTTGTCCGACTGTAGGTCCCGTATTTATTTTGGGTGCAGGCGCATGAGGCAGGAACAGGAATTTAACTTGTTCGTGAAAAGTTGTCTTGCCGGCGTTATCAAGTCCCAGCAAAAGAACCGAGTATTCTTCTTTGCGCGTTGCGTAGTGGTAGAGACCCTTAACCAAATGATACATGTAGGTTTAGATCTACATAAATGGAGAAAGAAATCTTAATTAGAATGG
B5: GS1855: dsRNA trigger SEQ ID NO 212; gene target Golgi apyrase (nucleic acid)
chain: TAACACCCGCAGTTGCCATCAGAAAGAAGGGAGTATCTTTAACTTGATTCTCAGGTACAATACTCAATGCATGATCTAGTAAGCTTTGAAGATGTTCAGGACCAATATCTGTTATGCGATCGGCAAAGGAAGAGACGCCGGGTTTGATTTTTTTTGAATATCCAGGTTTAGTGTGTAACTGAGGTAGTTGGTTCAATTGAATCTCATTTTTTGCATCGTAACGAGCTCGAGATGTATTGAGCCACCGGTAGACGTGGACTCGAGTCCCTGACGAGCCCGCGTCTAAGATAACCCCCCATCGCCATTTACCCATAAGTAGCCTATCGTTACGGTTTGGCGATGCCGGTCTAGGATATGTGCTTCAATATCAAAAATAATCCGTGAAGCGTTACAAAAACATGAGTCAATTATACGGAATTTGAAACGAGTGTGAAAGGAAGTCGGCAGACTCAAAAATAAAAAAGAAAGATAATAATTCGAATTTGAATGAGAATGAGTAGTGGTCGGATAAGATGTTTAATGCTAAGTGCTAAGATAACTGACTAAGACTTGAT
B6: GS1852: dsRNA trigger SEQ ID NO 202; gene target PA-phosphatase related-family protein DDB_G0275547 (nucleic acid)
chain: TTCTCTTAGGGACGGTTGGCATCATTATTAATTTTGCAGAACCAATTCCATCTCGATCTTTTCCGATTTATTCTCAAAATGGAGATATTGTTTATCCTCAATTTGCATATCCTCTTCGCAAGAATATCATTCCAATTTGGGTAGCAATTTTGTTGGCTTCACTTATTCCTTTGCTCATCATTTTCCTTACACAATTTCGTATTCGCTCGTTTTGGGATGCAAACAACGCGATTACAGGGCTATTATACTCCCTTATTATCGCCGGAGTGTTTCAAGTCTTCTTAAAGTGGTTAATTGGAGGGCTGAGACCTCATTTTCTAACCGTCTGTGAGCCAATAATTCCAACACGTGCTCCAATAAAGGCTAGATATGGGCCTAGAATAATAATGTACGACAGAAATGTCTGCACTGGCGACAAAAGGCAGATCAATAATTCTCTTGAATCATTCCCTTCAAGCCAATCGACTGTAGCATTTTCTGGTTTCGTTTATTTGGCTATATACCTGAATGCAAAACTTAAAATTTGGTCTAATTACCATTCTGCCATGTGGAAGAT
B7: GS1850: dsRNA trigger SEQ ID NO 198; gene target Ubiquitin-conjugating enzyme E2-34 kDa (nucleic acid)
chain: TCGTCATCCTCGTCTTGTTCAAAATCATAGTTATCATCGTCTGAGCTCTCGCTGGTACCGAACTCATCCTGATCATCACTCTCGTTCCAGAAATCATCGTCATCATTAATTTGCGGAGGAGGCGCCTCAATTAATGTTTTTGGCATCACAAAACCCTCCGGTATATCTCTCATAGAAATTCTTACTGTCTCCAAAGCCCGCTGTTTGTAAGCCTCCAGGTTATCCCGATACATAACGCTGGCATCAACATTTGCAGGGGAGGTAATCTCAGGGTCATCTAGTAAGAGAAGAATAGAGCGGAGAACACTTTCAACACTCTGAATTGATGACCAGCGCTCACAAGCAAGCTCTCCAGATTGTTCATCATCTCCAGCAGCGTGTAGTATTGAGATGCAAACCCTGCCATCAGGATATATATTTGGATGGTAAATAGGTTGCAAGAATTTGAAGGTCGGAGGAGCATAAGGATATTTATCAGTAAAACCCATTTCAGCCTTAAAATAAGCCCCATCGAAAGCACTTTCTGGGTTGACTACTATTAGAGCGATTAACCACTTGAA
B8: GS1849: dsRNA trigger SEQ ID NO 143; gene target Chitin synthase 8 (nucleic acid)
chain: TTGAGAAGCAGCCAACCATGTATTAACAACTAAGCTAGTGCTTGCATCAAGTTTATATGATTGCGTAGACGTGTAAGCAGTATGGATTGAGTTTAGGAGAGTAGTCGATGAGACTTGCGCTGGAGGTTGAGAAGTAGAATTGTTATTTCGAACACCTCCATACGCTGAAGAGGTAGTTGAATAGATAGACATCCGGTGAGTTCCAGTCATTTTATGAAGAGTGATCGAGTTTTTAGACCTTTCCACGTATGGATATTTAAGGTATGTAAATGAGTCAATTCAAAGTCACAAGATTCTCGATCAGTCGATTGATTGGCTTATTGACAATATTCTTTAGCCGAAATCTTAGACAATGGCTTGACAGAATTAATGTCTGGTCTTCGAAGTATCCAGTTGGTGTGTAGCAGATAACTTCGGTATAGTTGTAGAAATGGAAAACAAACCGCAAAAGACAGTCTTGTATCGACCGTGAGGCCGACAGTAGGAGAAATTCAATGCTATTGAGAAATTGAACAACCAAAAAGCGAAAGTAGGGTAACAAGTTTCGACTCACAGACCTA

The first data set has as its system E. necator. The data set is described as follows: Leaf disc assay, dry inoculum (settling tower), decrease in disease severity / hyphal growth (Example 2). To be noted: decrease in disease severity (hyphal growth) relative to untreated control; time point 1 (untreated control hyphal growth ≥50%); value ± SE.
Take B1: the “% decrease =/− SE TP1” value was found to be 14 ± 6%.
In the case of B2, the “% decrease =/− SE TP1” value was determined as 22 ± 5%.
On the same count and under the same terms, then B3, with 23 ± 6%.
On to B4, for which the “% decrease =/− SE TP1” value came to 18 ± 8%.
For the molecule B5, the “% decrease =/− SE TP1” value amounted to 26 ± 4%.
As for B6, the “% decrease =/− SE TP1” value was 22 ± 4%.
Still for that read-out and setting: then B7, with 13 ± 6%.

The same data set, now with this note: decrease in disease severity (hyphal growth) relative to untreated control; time point 2; value ± SE.
Consider B8, for which the “% decrease =/− SE TP2” value stood at 5 ± 8%.
On the same count and under the same terms, for B1 the value was 0 ± 5%; for B3, 24 ± 6%.
For B4, the “% decrease =/− SE TP2” value is 7 ± 8%.
As for B5, the “% decrease =/− SE TP2” value came out at 10 ± 6%.
Turning to B7, the “% decrease =/− SE TP2” value is on record as 0 ± 6%.
